The values below come from the supplement of paper PMC7877785.

± gives the uncertainty stated by the source.

The data set can be described thus: self-splicing fitness, log relative to wild type (ln ratio); higher = more splicing; Tetrahymena group I intron in knt gene, E. coli kanamycin selection, DiMSum; sequences stand for … in CUCUCU…GGAGGGAAAAGUUAUCAGGCAUGCACCUGGUAGCUAGUCUUUAAACCAAUAGAUUGCAUCGGUUUAAAAGGCAAGACCGUCAAAUUGCGGGAAAGGGGUCAACAGCCGUUCAGUACCAAGUCUCAGGGGAAACUUUGAGAUGGCCUUGCAAAGGGUAUGGUAAUAAGCUGACGGACAUGGUCCUAACCACGCAGCCAAGUCCUAAGUCAACAGAUCUUCUGUUGAUAUGGAUGCAGUUCACAGACUAAAUGUCGGUCGGGGAAGAUGUAUUCUUCUCAUAAGAUAUAGUCGGACCUCUCCUUAAUGGGAGCUAGCGGAUGAAGUGAUGCAACACUGGAGCCGCUGGGAACUAAUUUGUAUGCGAAAGUAUAUUGAUUAGUUUUGGAGUACUCGUGGUCG
A digest of the protocol: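 Library with all eight P1ex-region intron nucleotides randomised, intron inside the knt kanamycin-resistance gene on pET-22b(+), in E. coli BL21(DE3). Cells grew overnight at 37°C or 30°C on LB agar with or without 25 μg/mL kanamycin (plus 100 μg/mL carbenicillin, 50 μM IPTG, 0.2% rhamnose), in six replicate transformations. Pooled colonies were amplicon-sequenced on Illumina HiSeq 2500. DiMSum fitness is the error-weighted combination of wild-type-normalised replicate fold changes, kanamycin versus none.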

As for GCUCAGCAAUAUUACGUGAU, the “self-splicing fitness (ln)” value reads like this: (30 °C) -0.424 ± 0.072; (37 °C) -0.373 ± 0.078.
For the sequence UGAAAGCAAUAUUACGUUGA, the “self-splicing fitness (ln)” value by setting is: (30 °C) -3.13 ± 0.17; (37 °C) -1.23 ± 0.15.
The matching figures for UUAUAGCAAUAUUACGCACG: -1.18 ± 0.15 and -0.14 ± 0.18.
The matching figures for AAUCAGCAAUAUUACGUAAU: -0.172 ± 0.059 and 0.204 ± 0.075.
As for UGAGAGCAAUAUUACGCCGA, the “self-splicing fitness (ln)” value (30 °C) is -1.96 ± 0.36.
For AUUGAGCAAUAUUACGGGCG, where the note is “37 °C”, the “self-splicing fitness (ln)” value was -2.13 ± 0.34.
Turning to GCCAAGCAAUAUUACGCAGU, the “self-splicing fitness (ln)” value runs as follows: (30 °C) -2.82 ± 0.13; (37 °C) -1.22 ± 0.14.
The matching figures for GCGCAGCAAUAUUACGGUGC: -4.08 ± 0.25 and -2.13 ± 0.32.
The like results for UUUCAGCAAUAUUACGAUGG were, in that order, -2.15 ± 0.14 and -0.745 ± 0.16.
The like results for CUCGAGCAAUAUUACGAAGA were, in that order, -2.78 ± 0.29 and -1.64 ± 0.25.
Regarding CGCCAGCAAUAUUACGCAAA, the “self-splicing fitness (ln)” value (30 °C) is -2.31 ± 0.19 and the “self-splicing fitness (ln)” value (37 °C) is -2.64 ± 0.26.
For AUGCAGCAAUAUUACGAGUU, the “self-splicing fitness (ln)” value (30 °C) was -3.2 ± 0.11 and the “self-splicing fitness (ln)” value (37 °C) is -1.39 ± 0.1.
As for AAUCAGCAAUAUUACGGUCU, the “self-splicing fitness (ln)” value by setting is: (30 °C) -0.356 ± 0.06; (37 °C) -0.224 ± 0.071.
Consider CAUUAGCAAUAUUACGGGGU, for which the “self-splicing fitness (ln)” value by setting is: (30 °C) -3.26 ± 0.17; (37 °C) -2.25 ± 0.17.
The matching figures for UGAAAGCAAUAUUACGUAUC: -3.86 ± 0.28 and -2.38 ± 0.25.
The matching figures for UCUGAGCAAUAUUACGGAAU: -3.33 ± 0.34 and -1.88 ± 0.27.
As for CCAUAGCAAUAUUACGUAUC, the “self-splicing fitness (ln)” value was -2.32 ± 0.15 (30 °C) and -2.01 ± 0.31 (37 °C).
On to UCAAAGCAAUAUUACGGUUA, for which the “self-splicing fitness (ln)” value was -1.04 ± 0.092 (30 °C) and -0.132 ± 0.087 (37 °C).
Regarding GAAUAGCAAUAUUACGGACA, the “self-splicing fitness (ln)” value (30 °C) was -0.557 ± 0.12 and the “self-splicing fitness (ln)” value (37 °C) is -0.0249 ± 0.16.
The like results for UUCCAGCAAUAUUACGCACC were, in that order, -2.48 ± 0.3 and -1.55 ± 0.26.
The matching figures for GACGAGCAAUAUUACGGACG: -1.64 ± 0.21 and -2.33 ± 0.31.
As to UCGCAGCAAUAUUACGCAAA, the “self-splicing fitness (ln)” value is -2.05 ± 0.13 (30 °C) and -1.53 ± 0.11 (37 °C).
The like results for UGCCAGCAAUAUUACGAUUU were, in that order, -4.1 ± 0.23 and -1.54 ± 0.14.
The like results for UCGCAGCAAUAUUACGAUUU were, in that order, -3.55 ± 0.34 and -2.24 ± 0.17.
In the case of CCCUAGCAAUAUUACGAAAG, the “self-splicing fitness (ln)” value (30 °C) was -3.5 ± 0.26.
With UCCAAGCAAUAUUACGUCGC, the “self-splicing fitness (ln)” value is, setting by setting: (30 °C) -3.47 ± 0.21; (37 °C) -3.12 ± 0.28.
The matching figures for GCUUAGCAAUAUUACGACAA: -1.02 ± 0.14 and -0.462 ± 0.19.
The matching figures for AAUUAGCAAUAUUACGCCGU: -0.928 ± 0.23 and -0.523 ± 0.26.
Consider GACGAGCAAUAUUACGAGCA, for which the “self-splicing fitness (ln)” value is, setting by setting: (30 °C) -3.31 ± 0.35; (37 °C) -2.65 ± 0.3.
As to UCUAAGCAAUAUUACGAAAC, the “self-splicing fitness (ln)” value (37 °C) was -2.6 ± 0.45.
In the case of CCUCAGCAAUAUUACGGCAU, the “self-splicing fitness (ln)” value is -3.12 ± 0.13 (30 °C) and -2.42 ± 0.18 (37 °C).
For the sequence GUAGAGCAAUAUUACGUAAA, the “self-splicing fitness (ln)” value was -4.18 ± 0.36 (30 °C) and -1.4 ± 0.27 (37 °C).
The like results for GGCGAGCAAUAUUACGUCUG were, in that order, -4.26 ± 0.29 and -2.53 ± 0.16.
Take UAGGAGCAAUAUUACGAAGU: the “self-splicing fitness (ln)” value (37 °C) is -2.35 ± 0.43.
Turning to AUCCAGCAAUAUUACGAAGU, the “self-splicing fitness (ln)” value is -1.21 ± 0.079 (30 °C) and -1.2 ± 0.094 (37 °C).
As to CAUAAGCAAUAUUACGGAAC, the “self-splicing fitness (ln)” value (37 °C) was -2.26 ± 0.22.
As for GGUGAGCAAUAUUACGGAAC, the “self-splicing fitness (ln)” value is -1.27 ± 0.21 (30 °C) and -0.837 ± 0.24 (37 °C).
The like results for GGCAAGCAAUAUUACGCCGG were, in that order, -2.81 ± 0.3 and -3.19 ± 0.22.
The like results for CACAAGCAAUAUUACGAUGU were, in that order, -3.96 ± 0.16 and -1.99 ± 0.1.
Take CGUGAGCAAUAUUACGGGUG: the “self-splicing fitness (ln)” value by setting is: (30 °C) -0.878 ± 0.067; (37 °C) -0.658 ± 0.078.
As for UGCUAGCAAUAUUACGCUCU, the “self-splicing fitness (ln)” value is -1.63 ± 0.13 (30 °C) and -0.156 ± 0.15 (37 °C).
The like results for AGUAAGCAAUAUUACGCAAG were, in that order, -2.99 ± 0.16 and -1.88 ± 0.19.
The like results for CUCAAGCAAUAUUACGAUGA were, in that order, -1.31 ± 0.11 and -2.07 ± 0.16.
In the case of UCUGAGCAAUAUUACGAACA, the “self-splicing fitness (ln)” value runs as follows: (30 °C) -3.18 ± 0.34; (37 °C) -3.46 ± 0.35.
For ACCGAGCAAUAUUACGGAAU, the “self-splicing fitness (ln)” value runs as follows: (30 °C) -3.65 ± 0.2; (37 °C) -2.33 ± 0.25.
On to GUUGAGCAAUAUUACGACCG, for which the “self-splicing fitness (ln)” value (37 °C) was -1.77 ± 0.47.
As for GGGAAGCAAUAUUACGUAUU, the “self-splicing fitness (ln)” value (30 °C) was -1.87 ± 0.13 and the “self-splicing fitness (ln)” value (37 °C) was -1.58 ± 0.15.
The matching figures for UGUUAGCAAUAUUACGGCGA: 0.174 ± 0.14 and -0.431 ± 0.15.
Turning to GCCUAGCAAUAUUACGGUCU, the “self-splicing fitness (ln)” value was -1.12 ± 0.067 (30 °C) and -1.08 ± 0.078 (37 °C).
The matching figures for UUCUAGCAAUAUUACGAAGA: -1.99 ± 0.19 and -1.61 ± 0.21.
As for AUUCAGCAAUAUUACGGUAA, the “self-splicing fitness (ln)” value runs as follows: (30 °C) -0.935 ± 0.086; (37 °C) -0.659 ± 0.078.
Regarding ACUAAGCAAUAUUACGACGG, the “self-splicing fitness (ln)” value (30 °C) is -0.271 ± 0.074 and the “self-splicing fitness (ln)” value (37 °C) worked out at 0.203 ± 0.094.
The like results for GCCUAGCAAUAUUACGGGUC were, in that order, -4.6 ± 0.36 and -2.89 ± 0.25.
The matching figures for UGGAAGCAAUAUUACGAAAA: -1.93 ± 0.22 and -1.13 ± 0.19.
The matching figures for GAAUAGCAAUAUUACGGUCG: -0.153 ± 0.098 and -0.479 ± 0.12.
With CAUGAGCAAUAUUACGACUA, the “self-splicing fitness (ln)” value (30 °C) is -2.06 ± 0.27.
Consider UCUAAGCAAUAUUACGCUGA, for which the “self-splicing fitness (ln)” value runs as follows: (30 °C) -3.56 ± 0.41; (37 °C) -2.52 ± 0.33.
Consider CGUUAGCAAUAUUACGGUGA, for which the “self-splicing fitness (ln)” value reads like this: (30 °C) -2.76 ± 0.21; (37 °C) -0.883 ± 0.16.
The like results for UGUAAGCAAUAUUACGGUGG were, in that order, -3.54 ± 0.19 and -1.27 ± 0.13.
The matching figures for UGCCAGCAAUAUUACGUCCG: -0.88 ± 0.073 and 0.0267 ± 0.11.
In the case of GCUCAGCAAUAUUACGAUCU, the “self-splicing fitness (ln)” value was -0.418 ± 0.094 (30 °C) and -0.185 ± 0.099 (37 °C).
With AUUGAGCAAUAUUACGGAGA, the “self-splicing fitness (ln)” value (37 °C) was -1.85 ± 0.47.
As to GAGGAGCAAUAUUACGUUAA, the “self-splicing fitness (ln)” value (30 °C) is -2.94 ± 0.36 and the “self-splicing fitness (ln)” value (37 °C) is -1.65 ± 0.21.
For the sequence AAUGAGCAAUAUUACGCGUC, the “self-splicing fitness (ln)” value (30 °C) was -3.02 ± 0.29 and the “self-splicing fitness (ln)” value (37 °C) was -2.25 ± 0.29.
Turning to CGAUAGCAAUAUUACGUUCA, the “self-splicing fitness (ln)” value was -0.0649 ± 0.082 (30 °C) and 0.251 ± 0.1 (37 °C).
On to UCGUAGCAAUAUUACGCUGA, for which the “self-splicing fitness (ln)” value reads like this: (30 °C) -2.45 ± 0.28; (37 °C) -1.35 ± 0.15.
AUGAAGCAAUAUUACGAUAG: the “self-splicing fitness (ln)” value reads like this: (30 °C) -4.07 ± 0.39; (37 °C) -2.33 ± 0.32.
With GGCCAGCAAUAUUACGCCGC, the “self-splicing fitness (ln)” value (30 °C) was -4.33 ± 0.39.
For the sequence AUGAAGCAAUAUUACGCGCG, the “self-splicing fitness (ln)” value is -0.094 ± 0.087 (30 °C) and -0.808 ± 0.098 (37 °C).
The like results for GUGCAGCAAUAUUACGGCAG were, in that order, -2.71 ± 0.33 and -1.04 ± 0.25.
Take UAGAAGCAAUAUUACGAUAU: the “self-splicing fitness (ln)” value is, setting by setting: (30 °C) -3.44 ± 0.25; (37 °C) -2.19 ± 0.19.
Turning to UGGGAGCAAUAUUACGAAAU, the “self-splicing fitness (ln)” value (30 °C) is -1.47 ± 0.19.
Same read-out and setting: the figure for CGCGAGCAAUAUUACGCUGC is -2.91 ± 0.28.
For the sequence UCAAAGCAAUAUUACGCCUC, the “self-splicing fitness (ln)” value (37 °C) is -1.91 ± 0.37.
Regarding AGUUAGCAAUAUUACGUCCA, the “self-splicing fitness (ln)” value runs as follows: (30 °C) -0.989 ± 0.16; (37 °C) -0.0648 ± 0.18.
The like results for CGGCAGCAAUAUUACGUGUG were, in that order, -1.09 ± 0.036 and -0.654 ± 0.05.
As for UCCAAGCAAUAUUACGCCGC, the “self-splicing fitness (ln)” value (30 °C) is -2.64 ± 0.32.
For CGUUAGCAAUAUUACGUGUU, the “self-splicing fitness (ln)” value (30 °C) is -4.58 ± 0.22 and the “self-splicing fitness (ln)” value (37 °C) was -3.04 ± 0.17.
In the case of UAGAAGCAAUAUUACGUCAC, the “self-splicing fitness (ln)” value (30 °C) was -2.92 ± 0.35.
Consider GCGUAGCAAUAUUACGAGAA, for which the “self-splicing fitness (ln)” value is -1.15 ± 0.29 (30 °C) and -1.9 ± 0.2 (37 °C).
